The values that follow come from PMC9908306.

A word on the stoichiometry N: it is the number of molecules, sites or subunits per partner or assembly.

The target in this test is human glyceraldehyde 3-phosphate dehydrogenase (GAPDH) (human) (UniProt P04406). The test is described as follows: cryo-EM structure; single particle analysis of GAPDH on EG-grid, 0.5 mg/ml; D2 symmetry applied.

human glyceraldehyde 3-phosphate dehydrogenase (GAPDH), P04406 1-335 (enzyme; other documents disagree on this pair), sequence (P04406 whole entry): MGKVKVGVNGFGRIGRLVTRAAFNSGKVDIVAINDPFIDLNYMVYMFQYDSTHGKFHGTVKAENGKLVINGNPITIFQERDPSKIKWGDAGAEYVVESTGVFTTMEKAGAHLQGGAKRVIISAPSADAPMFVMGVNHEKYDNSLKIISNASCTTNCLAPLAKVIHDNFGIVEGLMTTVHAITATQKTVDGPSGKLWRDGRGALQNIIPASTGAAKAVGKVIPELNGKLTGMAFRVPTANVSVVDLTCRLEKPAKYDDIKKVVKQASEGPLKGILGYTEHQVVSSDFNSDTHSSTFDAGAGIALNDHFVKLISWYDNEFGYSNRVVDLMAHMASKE

“human glyceraldehyde 3-phosphate dehydrogenase (GAPDH), P04406 1-335 (enzyme; other documents disagree on this pair)” registered a stoichiometry N of 4.
